Results on twelve molecules are retold here after publication PMC11128890 (Frontiers in Cell and Developmental Biology, 2024).

The target of assay [1] is KDR domain 1 (D1) fused to GST. The experiment in a line: ELISA-type binding assay. To be noted: GST-KDR-D1 100 μg/mL, read off a plot. A general note: An ELISA detects its analyte on a solid surface through an enzyme-linked reagent.
For assay [2], the target named is VEGFR2/KDR (Homo sapiens) (UniProt P35968). To be noted: cited from earlier work.
VEGFR2/KDR (Homo sapiens), sequence (P35968 20-1356): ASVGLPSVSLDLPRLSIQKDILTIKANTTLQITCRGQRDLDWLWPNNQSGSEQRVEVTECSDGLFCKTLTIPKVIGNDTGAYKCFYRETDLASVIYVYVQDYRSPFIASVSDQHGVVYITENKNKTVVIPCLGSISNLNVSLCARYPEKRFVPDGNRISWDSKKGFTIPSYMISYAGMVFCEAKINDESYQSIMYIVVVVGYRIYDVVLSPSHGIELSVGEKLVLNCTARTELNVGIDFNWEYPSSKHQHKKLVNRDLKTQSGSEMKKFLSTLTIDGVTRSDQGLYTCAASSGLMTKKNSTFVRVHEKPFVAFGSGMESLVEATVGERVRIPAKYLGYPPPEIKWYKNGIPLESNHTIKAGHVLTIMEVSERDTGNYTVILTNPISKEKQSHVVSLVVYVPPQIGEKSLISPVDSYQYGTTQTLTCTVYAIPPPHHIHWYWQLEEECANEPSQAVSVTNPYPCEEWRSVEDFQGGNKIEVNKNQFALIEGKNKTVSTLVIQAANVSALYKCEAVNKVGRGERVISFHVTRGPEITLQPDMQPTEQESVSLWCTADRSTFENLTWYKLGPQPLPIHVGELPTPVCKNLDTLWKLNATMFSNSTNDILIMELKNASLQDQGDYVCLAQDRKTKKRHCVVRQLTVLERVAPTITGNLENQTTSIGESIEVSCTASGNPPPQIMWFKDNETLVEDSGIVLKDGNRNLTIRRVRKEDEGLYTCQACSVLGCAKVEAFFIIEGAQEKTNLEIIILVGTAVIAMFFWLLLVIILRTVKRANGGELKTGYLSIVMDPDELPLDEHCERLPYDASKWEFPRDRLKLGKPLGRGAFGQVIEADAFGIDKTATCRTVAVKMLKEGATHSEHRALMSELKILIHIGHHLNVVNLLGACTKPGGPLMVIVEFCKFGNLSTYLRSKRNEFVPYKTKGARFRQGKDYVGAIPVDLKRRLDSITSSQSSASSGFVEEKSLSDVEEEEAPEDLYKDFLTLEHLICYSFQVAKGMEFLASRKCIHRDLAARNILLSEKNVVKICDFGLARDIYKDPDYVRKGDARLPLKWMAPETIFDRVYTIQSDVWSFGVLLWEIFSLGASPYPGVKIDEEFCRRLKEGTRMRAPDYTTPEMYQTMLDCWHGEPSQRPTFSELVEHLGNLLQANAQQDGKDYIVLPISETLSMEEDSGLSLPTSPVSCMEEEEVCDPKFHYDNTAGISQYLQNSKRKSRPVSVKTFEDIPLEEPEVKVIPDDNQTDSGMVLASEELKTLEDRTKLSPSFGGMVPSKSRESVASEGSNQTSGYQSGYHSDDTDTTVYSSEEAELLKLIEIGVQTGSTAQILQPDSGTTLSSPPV
Assay [3] addresses T1, KDR domain 1 (D1) fused to GST.
T1 chain: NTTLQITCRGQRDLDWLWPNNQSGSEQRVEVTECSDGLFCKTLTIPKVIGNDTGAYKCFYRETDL
The assay can be described thus: ELISA-type binding assay. The note with it: chain shown with the change, read off a plot.

For assay [4], the target named is T2, recombinant soluble integrin αvβ3 (UniProt P06756 31-987; P05106 27-718).
T2 construct: integrin αv subunit, soluble expression construct; integrin β3 subunit, soluble expression construct; PDB 1L5G is the αvβ3 structure used for docking, not necessarily the same limits; also called soluble αvβ3; source: CHO K1 cells, soluble αv and β3 expression constructs, purified (Ni-NTA)
T2 sequence (P06756 31-987, chain 1 of 2): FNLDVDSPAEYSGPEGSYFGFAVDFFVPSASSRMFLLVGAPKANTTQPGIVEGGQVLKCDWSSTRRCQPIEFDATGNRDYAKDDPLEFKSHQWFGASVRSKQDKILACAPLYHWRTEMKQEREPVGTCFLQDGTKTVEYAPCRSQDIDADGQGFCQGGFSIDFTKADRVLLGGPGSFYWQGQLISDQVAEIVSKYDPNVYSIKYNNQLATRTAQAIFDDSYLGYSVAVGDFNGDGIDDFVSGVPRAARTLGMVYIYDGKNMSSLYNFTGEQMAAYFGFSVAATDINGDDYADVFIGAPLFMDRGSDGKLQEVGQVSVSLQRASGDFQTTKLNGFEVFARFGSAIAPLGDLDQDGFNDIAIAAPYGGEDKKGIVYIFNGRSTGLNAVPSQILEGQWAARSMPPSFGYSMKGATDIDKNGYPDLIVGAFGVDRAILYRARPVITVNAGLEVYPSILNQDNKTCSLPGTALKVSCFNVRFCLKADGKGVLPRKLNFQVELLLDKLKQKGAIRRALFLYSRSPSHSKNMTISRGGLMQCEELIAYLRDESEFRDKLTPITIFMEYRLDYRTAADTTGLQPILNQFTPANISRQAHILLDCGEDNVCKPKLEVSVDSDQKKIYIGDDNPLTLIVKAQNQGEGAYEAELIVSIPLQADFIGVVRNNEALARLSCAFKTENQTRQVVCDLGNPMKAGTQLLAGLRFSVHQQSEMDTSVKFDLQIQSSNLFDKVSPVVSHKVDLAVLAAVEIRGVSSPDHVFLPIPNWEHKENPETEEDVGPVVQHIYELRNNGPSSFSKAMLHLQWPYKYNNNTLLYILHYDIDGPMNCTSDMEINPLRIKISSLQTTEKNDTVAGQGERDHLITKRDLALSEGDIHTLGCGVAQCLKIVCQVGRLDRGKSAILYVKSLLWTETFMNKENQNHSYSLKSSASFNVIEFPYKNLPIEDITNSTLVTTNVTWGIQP
T2 sequence (P05106 27-718, chain 2 of 2): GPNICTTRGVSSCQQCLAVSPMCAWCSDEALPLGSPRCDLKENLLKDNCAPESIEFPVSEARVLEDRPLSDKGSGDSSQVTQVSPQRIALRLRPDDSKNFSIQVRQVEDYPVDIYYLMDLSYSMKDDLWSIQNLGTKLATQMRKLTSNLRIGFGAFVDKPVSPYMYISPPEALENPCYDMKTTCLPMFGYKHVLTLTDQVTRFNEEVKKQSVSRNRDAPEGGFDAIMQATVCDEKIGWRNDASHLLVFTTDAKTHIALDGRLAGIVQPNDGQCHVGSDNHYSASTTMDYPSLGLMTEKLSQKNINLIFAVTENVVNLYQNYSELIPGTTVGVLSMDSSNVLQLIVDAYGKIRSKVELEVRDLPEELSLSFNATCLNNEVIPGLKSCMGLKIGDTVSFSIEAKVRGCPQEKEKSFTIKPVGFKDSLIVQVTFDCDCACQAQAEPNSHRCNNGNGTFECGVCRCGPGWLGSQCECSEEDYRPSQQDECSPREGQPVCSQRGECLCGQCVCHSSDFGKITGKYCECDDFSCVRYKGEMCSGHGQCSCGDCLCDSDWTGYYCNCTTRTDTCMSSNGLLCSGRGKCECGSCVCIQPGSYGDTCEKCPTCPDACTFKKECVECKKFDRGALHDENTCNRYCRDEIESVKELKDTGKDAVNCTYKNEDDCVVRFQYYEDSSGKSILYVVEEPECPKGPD
The experiment in a line: ELISA; HBD, NTD or HBD mutants coated on 96-well plates, blocked with BSA; soluble αvβ3 (1 μg/mL) in HEPES-Tyrode buffer + 1 mM MnCl2, 1 h room temperature; bound αvβ3 detected with anti-β3 mAb AV10; binding to HBD inhibited by mAb 7E3 and cation-dependent. The note with it: both partners purified.

In assay [5] the target is T3, KDR domain 1 (D1), His-tagged.
T3 chain: T1 chain
The assay can be described thus: SPR.

Assay [6] addresses T4, KDR domain 1 (D1), His-tagged.
T4 construct: first IgG-like domain (D1) of VEGFR2/KDR, amplified from full-length KDR cDNA; Cloned into the BamHI/EcoRI site of pET28a; also called KDR D1; KDR D1 (His-tagged)
T4 chain: T1 chain
The assay can be described thus: SPR; KDR D1 (His-tagged) immobilised on CM5 chip by amine coupling; HBD injected at 50 μL/min for 1.8 min; HBS-EP buffer (0.01 M HEPES pH 7.4, 0.15 M NaCl, 3 mM EDTA, 0.0005% P20). To be noted: both partners purified. (SPR reads the build-up and loss of mass on a sensor chip optically.)

Assay [7] has as its target T2, recombinant soluble integrin αvβ3. The experiment in a line: SPR; soluble αvβ3 (His-tagged) immobilised on CM5 chip by amine coupling; HBD injected at 50 μL/min for 1.8 min; HBS-P buffer (0.01 M HEPES pH 7.4, 0.15 M NaCl, 0.0005% P20) with 1 mM Mn2+. To be noted: both partners purified.
[8] abbreviates: HBD at 10 µg/ml, parent: est. 0.93.
Where [9] appears, read: HBD coated at 20 µg/ml (highest point of the curve), parent: est. 1.4.
The mark [10] stands for this setting: GST-KDR-D1 100 μg/mL, parent: est. 0.51.

Take “VEGF165 heparin-binding domain (HBD), wild type K136E”: the response in assay [1] (setting [8]) was 1 OD450.
In the case of “VEGF165 heparin-binding domain (HBD), wild type K145E”, the response in assay [1] (setting [8]) amounted to 0.74 OD450; in assay [1] (setting [9]), 1.1 OD450.
The corresponding values for “VEGF165 heparin-binding domain (HBD), wild type K140E” are 0.73 OD450 and 0.89 OD450.
Turning to VEGF165 (from UniProt P15692), in assay [2], the Kd (usually the equilibrium constant for the complex coming apart) was 0.14 nM.
In the case of PCGPCSERREHLFVQDPQTCKCSCKNTDSRCKARQLELNERTCRCDKPRR [VEGF165 heparin-binding domain (HBD), wild type K125E], the response in assay [3] (setting [10]) is 0.31 OD450.
With PCGPCSEAAAHLFVQDPQTCKCSCANTDSACKAAQLELNERTCRCDKPRR [VEGF165 heparin-binding domain (HBD), wild type R123A; R124A; K125A; K140A; R145A; R149A], the response in assay [3] (left graph (dose-response), HBD coated at 10 µg/ml, soluble GST-tagged KDR fragment 100 μg/mL, parent: est. 0.77) is 0.1 OD450; in assay [3] (left graph (dose-response), HBD coated at 20 µg/ml, soluble GST-tagged KDR fragment 100 μg/mL, parent: est. 1.2), 0.16 OD450; in assay [3] (right graph (bar chart), 20 µg/ml, n=3, soluble GST-tagged KDR fragment 100 μg/mL, parent: est. 1.4), 0.13 OD450.
As for PCGPCSEAAAHLFVQDPQTCKCSCKNTDSRCKARQLELNERTCRCDKPRR (domain or fragment, human, the substitutions are to be applied) [VEGF165 HBD R123A/R124A/K125A mutant], the binding result in assay [4] was “binds”.
With PCGPCSEEEEHLFVQDPQTCKCSCKNTDSRCKARQLELNERTCRCDKPRR [VEGF165 heparin-binding domain (HBD), wild type R123E; R124E; K125E], the response in assay [3] (setting [10]) amounted to 0.06 OD450; in assay [3] (HBD at 10 µg/ml, GST-KDR-D1 100 μg/mL, parent: est. 0.93), 0.14 OD450; in assay [3] (HBD coated at 20 µg/ml (highest point of the curve), GST-KDR-D1 100 μg/mL, parent: est. 1.4), 0.16 OD450.
As for PCGPCSEREKHLFVQDPQTCKCSCKNTDSRCKARQLELNERTCRCDKPRR [VEGF165 heparin-binding domain (HBD), wild type R124E], the response in assay [3] (setting [10]) worked out at 0.2 OD450.
As to PCGPCSERRKHLFVQDPQTCKCSCANTDSACKAAQLELNERTCRCDKPRR (domain or fragment, human, the substitutions are to be applied) [VEGF165 HBD K140A/R145A/R149A mutant], the binding result in assay [4] is listed as “binds”.

B1: VEGF165 heparin-binding domain (HBD), wild type (domain or fragment, human)
chain: PCGPCSERRKHLFVQDPQTCKCSCKNTDSRCKARQLELNERTCRCDKPRR
notes: Cloned into the BamHI/EcoRI site of pET28a; PDB 2VGH is the HBD structure used for docking; also called VEGF165-HBD; VEGF165 HBD
With B1, the dissociation constant Kd in assay [5] is 109 nM; in assay [6], approximately 100 nM; in assay [7], 470 nM.
For the molecule PCGPCSEERKHLFVQDPQTCKCSCKNTDSRCKARQLELNERTCRCDKPRR [VEGF165 heparin-binding domain (HBD), wild type R123E], the response in assay [3] (setting [10]) came out at 0.14 OD450.
